Measured values taken from the supplement of paper PMC9170038.

Test system: MS2 coat protein
Test: apparent KD of MS2 coat protein; designed switch direction (-1 OFF switch, 1 ON switch): 1; higher = weaker reporter binding
In short: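 Each step of the titration lasted 0.8–1.5 h at the lowest concentration and 10–20 min at the highest. The protein, SNAP-549-labelled MS2 coat protein, went from 0.7 or 1.5 nM doubling to 3 µM over RNA switches transcribed on Illumina chips by stalled E. coli RNA polymerase. Normalised cluster fluorescence was curve-fitted, and the per-design median over clusters is given as apparent KD.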

[1] = input ligand: microRNA oligo, concentration not stated
[2] = Eterna round: R95, input ligand: FMN 200 uM
[3] = Eterna round: R95, input ligand: microRNA oligo, concentration not stated
[4] = Eterna round: R95, input ligand: none

Row | Sequence | apparent KD of MS2 coat protein (input ligand: FMN 200 uM) | apparent KD of MS2 coat protein [1] | apparent KD of MS2 coat protein (input ligand: none) | apparent KD of MS2 coat protein [2] | apparent KD of MS2 coat protein [3] | apparent KD of MS2 coat protein [4]
1 | CACCCAAAGGAAGGAUAUAGGGACUCGAGGACAACAUGAGGAUCACCCAUGUCCCGCCAUCGGCCUUAGAAGGUCCAAGGGAAC [Eternabot solution 7] (Eterna round: R96, puzzle: Same State NG 2) | 18.8 nM | 17.1 nM | 21.8 nM |  |  | 
2 | CAGCCACAAAAUACGGCUGAAACAUGAGGAUCACCCAUGUCACAGGAUAUCCAACGGUAUACCGCGGAGAAGGGUGCGAAGAAC [Ceusso] (Eterna round: R96, puzzle: Same State NG 3) | 73.7 nM | 73.8 nM | 52.4 nM |  |  | 
3 | CAGCGCUGUCGAGAGGAUAUGCAGUGAUGGACAUGAGGAUCACCCAUGUUAGCGAUAGCAUUACAGUAGAAGGCUCUACAGCUGC [Soteed - 14] (puzzle: Same State 2) |  |  |  | 13 nM | 16.4 nM | 19.5 nM
4 | CAGCGCUGUCGAGAGGAUAUGCAGUGAUGGACAUGAGGAUCACCCAUGUUAGCGAUAGCAUUACGGUAGAAGGCUCUACAGCUGC [Soteed - 13] (puzzle: Same State 2) |  |  |  |  | 16.4 nM | 
5 | CAGCGCUGUCGAGAGGAUAUGCGGUGAUGGACAUGAGGAUCACCCAUGUUAGCGACAGCAUCACGGCAGAAGGCUCUACCGCUGC [Soteed Omei mod 18] (Eterna round: R96, puzzle: Same State 2) | 19.9 nM | 24.1 nM | 60.7 nM |  |  | 
6 | CAGCGCUGUCGAGAGGAUAUGCGGUGAUGGACAUGAGGAUCACCCAUGUUAGCGACAGCAUCACGGCAGAAGGCUCUACCGCUGC [Soteed Omei mod 18] (puzzle: Same State 2) |  |  |  | 19.3 nM | 18.8 nM | 30.3 nM
7 | CAGCGCUGUCGAGAGGAUAUGCGGUGAUGGACAUGAGGAUCACCCAUGUUAGCGACAGCAUUACGGUAGAAGGCUUCACAGCUGC [Soteed Omei mod 15] (Eterna round: R96, puzzle: Same State 2) | 287 nM | 14.4 nM | 55.7 nM |  |  | 
8 | CAGCGCUGUCGAGAGGAUAUGCGGUGAUGGACAUGAGGAUCACCCAUGUUAGCGACAGCAUUACGGUAGAAGGCUUCACAGCUGC [Soteed Omei mod 15] (puzzle: Same State 2) |  |  |  | 61 nM | 33.3 nM | 41.8 nM
9 | CAUUGGACAUCCAGUGAGACAUGAGGAUCACCCAUGUAGGCGCAGGAUAUGCGGGUUCGGUGCUCGCAGAAGGGUGAAGAAAAC [Veenin] (Eterna round: R96, puzzle: Same State NG 3) | 129 nM | 98.2 nM | 114 nM |  |  | 
10 | CCAGCUUCGGCAGGAUAUGGCGCGCCACUACGCCCAGAAGGGCCGGAAGAUACUACAACCACUACAUGAGGAUCACCCAUGUCA [Eternabot solution 1] (Eterna round: R96, puzzle: Same State NG 1) | 30.7 nM | 5.79 nM | 66.8 nM |  |  | 
11 | CCAGGACAUGAGGAUCACCCAUGUGCUUAAUAUGGAGAAUCUCAGGAUAUCAUGAGGAUCACCCAUGAGAAGGGAGAUCCGAGG (Eterna round: R96, puzzle: Same State NG 3) | 144 nM | 118 nM | 152 nM |  |  | 
12 | CCAUGGUAACAUGAGGAUCACCCAUGUACAAGCUUUUUGCUCGUCUUACCCGGCGCGCCCAUUAUGGGCGCGCCGGG [Nishu_Seq3] (puzzle: Sensor for hsa-mir-208a version 2) |  |  |  | 41.1 nM | 45.4 nM | 32.5 nM
13 | CCGAUGCAAAUAAAACAUGAGGAUCACCCAUGUGAGACACAUGAGGAUAUGCAGGUCAAAGACUUGCAGAAGGCAUAGCGUCGG [JL SSNG3 3.87] (Eterna round: R96, puzzle: Same State NG 3) | 24.1 nM | 227 nM | 270 nM |  |  | 
14 | CCGAUGGUAUACUAGGAUAUGGGCGCCCUUACAUGAGGAUCACCCAUGUUAUCACAAAUCCGCGGCCAGAAGGAGUUCAUGGGAG [Ustiririra] (Eterna round: R96, puzzle: Same State 2) | 165 nM | 173 nM | 138 nM |  |  | 
15 | CCUGCGAUAAGCGAGCGAACAUGAGGAUCACCCAUGUGGCGGCAGGAUAUGGGUGACCCAGCGACUCAGAAGGGCCGAAGCUAA [Eternabot solution 8] (Eterna round: R96, puzzle: Same State NG 3) | 49.1 nM | 11.9 nM | 23.2 nM |  |  | 
16 | CGAAAGAGGUGAGGAUAUGCAGAGGAUCACCCUGUAGAAGGCAUCAGGUGAGGAUAUGCAGAGGAUCACCCUGUAGAAGGCAUC [pwkr ssNG DX.12] (Eterna round: R96, puzzle: Same State NG 1) | 151 nM | 336 nM | 596 nM |  |  | 

Row | Sequence | apparent KD of MS2 coat protein (input ligand: FMN 200 uM) | apparent KD of MS2 coat protein [1] | apparent KD of MS2 coat protein (input ligand: none) | apparent KD of MS2 coat protein [2] | apparent KD of MS2 coat protein [3] | apparent KD of MS2 coat protein [4]
17 | CGCAUCCUUGUUACAUGAGGAUCACCCAUGUUUUCGAGUGGAGAGGAUAUCGUAACAGUAUUUUUCGAGAAGGCUCUAUAGUAU [JR_SSNG3_Sub081] (Eterna round: R96, puzzle: Same State NG 3) | 52.1 nM | 39 nM | 57.3 nM |  |  | 
18 | CGCGGCAAGGAAGGAUAUGGGACGAAAACGUACCUAGAAGGUCCACAUGAGGAUCACCCAUGUACCAAGAAAACCGCUAAAUUA [Atceorer] (Eterna round: R96, puzzle: Same State NG 1) | 70.7 nM | 177 nM | 207 nM |  |  | 
19 | CGCGGUAAGGAAGGAUAUGGGACGAAAACGUACCUAGAAGGUCCACAUGAGGAUCACCCAUGUACCAAGAAAGCCGCUCAAUUA [Uszabeon] (Eterna round: R96, puzzle: Same State NG 1) | 89.8 nM | 260 nM | 334 nM |  |  | 
20 | CGGAAACGAUGAGGAUAUGCAGAGGAUCACCCUGUAGAAGGCAAGAGAUGAGGAUAUGCAGAGGAUCACCCUGUAGAAGGCAAC [pwkr ssNG DX.4] (Eterna round: R96, puzzle: Same State NG 1) | 146 nM | 56.5 nM | 84.9 nM |  |  | 
21 | CGUAGGUAGCUGGAGGAUAUUCGAGUGGUAACAUGAGGAUCACCCAUGUGGUGAGAGGAACAUGAGGAGAAGGCUAGCUGCCUGC [JL-ss2-3.15 JL mod] (Eterna round: R96, puzzle: Same State 2) | 1290 nM | 925 nM | 906 nM |  |  | 
22 | CGUAGGUAGCUGGAGGAUAUUCGAGUGGUAACAUGAGGAUCACCCAUGUGGUGAGAGGAACAUGAGGAGAAGGCUAGCUGCCUGC [JL-ss2-3.15 JL mod] (puzzle: Same State 2) |  |  |  | 118 nM | 96.2 nM | 76.9 nM
23 | CGUCCAGCCUGAGCUGGACAAAAGCAUGUACAUGAGGAUCACCCAUGUUCAUGUACAAGCUUUUUGCUCGUCUUACA [salish99_208a_r3_091x] (puzzle: Sensor for hsa-mir-208a) |  |  |  | 691 nM | 16.2 nM | 695 nM
24 | CGUCCGGCCUGUGCUGGCCGGUGGCUUGUACAUGAGGAUCACCCAUGUUCUUGUGCUGGCUUUUUGCUCGUCUUGUG [salish99_mir208a_021] (puzzle: Sensor for hsa-mir-208a) |  |  |  | 37 nM | 18.9 nM | 43.8 nM
25 | CGUCGUUUGAUAGGAUAUCGCUAUACAUGAGGAUCACCCAUGUUUACCACGCUGGUUUUUCAUUCCGAGAAGGAUUCUGAUGUU [salish99_SSNG02_r04_021] (Eterna round: R96, puzzle: Same State NG 2) | 34.7 nM | 26 nM | 36.1 nM |  |  | 
26 | CGUCGUUUGAUAGGAUAUCGCUUUCCAUGAGGAUCACCCAUGUUUACCACGCUGGUUUUUCUUUCCGAGAAGGAUUCUGAUGUU [salish99_SSNG02_r04_025] (Eterna round: R96, puzzle: Same State NG 2) | 169 nM | 143 nM | 153 nM |  |  | 
27 | CUAGCGCAUGCAGGAUAUCUGGUGUAUGCCUCGAGAUAACAUGAGGAUCACCCAUGUCCGCUCAAAGAGAAGGGCAUGCAAAUG [Eternabot solution 8] (Eterna round: R96, puzzle: Same State NG 2) | 1180 nM | 177 nM | 618 nM |  |  | 
28 | CUCAAACAUGAGGAUCACCCAUGUGUUGUCAUGGGAGGAUAUCCCAGUUCGGUGACGUCGGGAGAAGGCCUAUGUC [× ×•×ª×• ×ž×“×™× ×” × ×—×ª-15] (puzzle: Same State 1) |  |  |  |  | 77.7 nM | 
29 | CUCCGGAUUGACAUGAGGAUCACCCAUGUGCCCUCAUUAAAGUAGGAUAUACCUCGCAGUCGGGAGUAGAAGGACUUUAUGAGU [Eternabot solution 36] (Eterna round: R96, puzzle: Same State NG 3) | 204 nM | 91.1 nM | 213 nM |  |  | 
30 | CUGAGCGAUCGAGGAUAUCACGUCGAUUAGACGUGAGAAGGCGAUCAUAACAUGAGGAUCACCCAUGUAUUACAUGAAGCUCAG [SSNG1/4-A2] (Eterna round: R96, puzzle: Same State NG 1) | 17.1 nM | 12.9 nM | 15.8 nM |  |  | 
31 | CUGAGCGAUCUAGGAUAUCACGUCGAAUAGACGUGAGAAGGAGAUCAUAACAUGAGGAUCACCCAUGUAUUACAUGAAGCUCAG [SSNG1/6-A1] (Eterna round: R96, puzzle: Same State NG 1) | 13.2 nM | 10.4 nM | 25.4 nM |  |  | 
